The record followed here is patent US20240158510A1 (GOVERNING COUNCIL OF THE UNIVERSITY OF TORONTO, published 2024).

Read-outs that look alike come from different tables or passages of the source.

For assay [1], the target named is T1, integrin αvβ1 expressed on CHO cells (UniProt P06756 31-1048; P05556 21-798, limits assumed). Briefly: cell-based or functional assay.
For assay [2], the target named is T2, integrin αvβ6 expressed on CHO cells (UniProt P06756 31-1048; P18564 22-788, limits assumed).
T2 construct: whole, on cells
Briefly: flow cytometry titration on AvB6 CHO cells. Here is the method:
(§1) Adherent cells were brought into suspension using PBS supplemented with 10 mM ethylenediaminetetraacetic acid (EDTA). The cells were washed with PBS, resuspended in PBS supplemented with 1% BSA, and incubated for 15 minutes at 4° C. The cells were labelled with 50 μl of Fab-phage culture supernatant, or 500 nM Fab, or IgG for 30 minutes at 4° C., then washed with PBS and resuspended in PBS supplemented with 1% BSA. Next, the cells were labelled with anti-Fab (for Fab-phage), or anti-Flag (for Fabs) or anti-Fc (for IgGs) conjugated Alexa-488 secondary Ab according to manufacturer's instructions. Data were collected using a CytoFLEX-S flow-cytometer using a 488-nm laser with 530/25 nm filter settings. The cells were analyzed in PBS, and all acquired live events were greater than 10,000 cells per sample. Quantitation analysis was carried out using FlowJo v10.2 Software. For Ab cellular titration analysis, the Abs were added to antigen positive cells in duplicate samples from a range of 500 pM to 1 μM. The mean fluorescence signal values were subtracted from the control antigen negative cells signals, and EC50 determined using Graph-pad Prism, where x is the Fab concentration: […]
Background: In flow cytometry, cells or beads pass a laser one at a time.

The target in assay [3] is T3, integrin αvβ8 expressed on CHO cells (UniProt P06756 31-1048; P26012 43-769, limits assumed).
T3 construct: whole, on cells
Briefly: flow cytometry titration on AvB8 CHO cells. The procedure: as §1

The target of assay [4] is T4, integrin αvβ3 expressed on CHO cells (UniProt P06756 31-1048; P05106 27-788, limits assumed). Briefly: cell-based or functional assay.
Assay [5] addresses T5, integrin αvβ5 expressed on CHO cells (UniProt P06756 31-1048; P18084 24-799, limits assumed). In words: cell-based or functional assay.
The target of assay [6] is T1, integrin αvβ1 expressed on CHO cells. In words: cell-based or functional assay. The source holds these as a separate data set.
For assay [7], the target named is T2, integrin αvβ6 expressed on CHO cells. Briefly: cell-based or functional assay.
Assay [8] addresses T3, integrin αvβ8 expressed on CHO cells. Briefly: cell-based or functional assay.
Assay [9] concerns the target T4, integrin αvβ3 expressed on CHO cells. Briefly: flow cytometry titration on AvB3 CHO cells. The procedure:
as §1

Assay [10] concerns the target T5, integrin αvβ5 expressed on CHO cells. In words: flow cytometry titration on AvB5 CHO cells. Here is the method: as §1
For assay [11], the target named is T1, integrin αvβ1 expressed on CHO cells. Briefly: flow cytometry titration on integrin-αvβ1 CHO cells (curves in FIG. 12K). Here is the method:
as §1

Assay [12] has the same target. In words: flow cytometry titration on AvB1 CHO cells. The procedure:
as §1

The target is the same in assay [13]. Briefly: flow cytometry titration on integrin-αvβ1 CHO cells; binder taken from the context of FIG. 10 and Example 2. Here is the method: as §1
For assay [14] the target is unchanged. In words: cell-based or functional assay. The source holds these as a separate data set.
Assay [15] has as its target T4, integrin αvβ3 expressed on CHO cells. In words: cell-based or functional assay. The source holds these as a separate data set.
The target of assay [16] is T5, integrin αvβ5 expressed on CHO cells. In words: cell-based or functional assay. The source holds these as a separate data set.
For assay [17], the target named is T1, integrin αvβ1 expressed on CHO cells. In words: cell-based or functional assay. The source holds these as a separate data set.
Assay [18] has as its target T3, integrin αvβ8 expressed on CHO cells. In words: cell-based or functional assay. The source holds these as a separate data set.
In assay [19] the target is T1, integrin αvβ1 expressed on CHO cells. Briefly: cell-based or functional assay. The source holds these as a separate data set.

T3 sequence (P06756 31-1048 limits assumed, chain 1 of 2): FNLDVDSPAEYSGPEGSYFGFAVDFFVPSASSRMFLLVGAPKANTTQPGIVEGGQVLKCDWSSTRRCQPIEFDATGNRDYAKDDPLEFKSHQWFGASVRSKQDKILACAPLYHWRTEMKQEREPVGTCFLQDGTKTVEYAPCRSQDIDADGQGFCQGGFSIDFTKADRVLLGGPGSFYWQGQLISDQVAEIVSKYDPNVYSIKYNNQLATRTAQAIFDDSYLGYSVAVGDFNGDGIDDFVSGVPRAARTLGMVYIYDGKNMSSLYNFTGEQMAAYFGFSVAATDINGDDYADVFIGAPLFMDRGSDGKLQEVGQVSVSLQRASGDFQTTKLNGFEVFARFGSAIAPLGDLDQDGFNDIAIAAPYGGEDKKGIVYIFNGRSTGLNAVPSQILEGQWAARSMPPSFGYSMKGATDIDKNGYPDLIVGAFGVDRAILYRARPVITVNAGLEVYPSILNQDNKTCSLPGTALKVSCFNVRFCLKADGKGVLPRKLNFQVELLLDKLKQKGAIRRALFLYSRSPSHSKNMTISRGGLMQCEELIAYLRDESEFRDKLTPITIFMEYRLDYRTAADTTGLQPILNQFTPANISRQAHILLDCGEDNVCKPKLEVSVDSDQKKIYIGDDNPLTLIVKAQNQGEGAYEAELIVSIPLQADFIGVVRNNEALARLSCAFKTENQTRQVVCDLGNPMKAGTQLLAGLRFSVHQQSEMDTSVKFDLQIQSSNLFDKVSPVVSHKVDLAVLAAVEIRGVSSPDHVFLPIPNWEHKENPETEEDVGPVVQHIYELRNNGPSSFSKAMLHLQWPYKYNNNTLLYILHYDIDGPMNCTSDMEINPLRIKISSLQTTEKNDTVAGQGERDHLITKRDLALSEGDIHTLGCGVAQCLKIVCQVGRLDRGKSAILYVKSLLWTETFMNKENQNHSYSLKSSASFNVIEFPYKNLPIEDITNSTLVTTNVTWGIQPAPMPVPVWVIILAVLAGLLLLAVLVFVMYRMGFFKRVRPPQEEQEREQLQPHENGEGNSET
T3 sequence (P26012 43-769 limits assumed, chain 2 of 2): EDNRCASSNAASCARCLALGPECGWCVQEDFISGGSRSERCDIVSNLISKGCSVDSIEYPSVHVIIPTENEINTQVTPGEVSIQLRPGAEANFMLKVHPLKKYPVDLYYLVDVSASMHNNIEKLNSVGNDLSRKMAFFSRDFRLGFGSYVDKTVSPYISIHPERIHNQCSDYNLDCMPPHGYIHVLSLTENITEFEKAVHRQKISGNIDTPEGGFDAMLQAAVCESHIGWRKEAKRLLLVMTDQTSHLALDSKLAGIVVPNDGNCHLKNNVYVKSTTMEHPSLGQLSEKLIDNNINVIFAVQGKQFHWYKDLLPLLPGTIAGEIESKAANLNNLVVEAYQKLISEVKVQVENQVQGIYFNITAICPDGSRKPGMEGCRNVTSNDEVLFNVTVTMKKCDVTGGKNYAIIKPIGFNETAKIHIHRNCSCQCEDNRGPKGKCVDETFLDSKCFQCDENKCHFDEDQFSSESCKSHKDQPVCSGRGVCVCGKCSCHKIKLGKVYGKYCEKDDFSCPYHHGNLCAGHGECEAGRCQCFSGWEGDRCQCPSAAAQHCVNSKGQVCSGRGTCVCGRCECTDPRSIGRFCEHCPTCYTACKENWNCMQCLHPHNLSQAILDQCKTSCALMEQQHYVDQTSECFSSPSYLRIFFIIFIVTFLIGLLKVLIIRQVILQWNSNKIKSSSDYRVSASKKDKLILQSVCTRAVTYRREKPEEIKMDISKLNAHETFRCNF
T5 sequence (P06756 31-1048 limits assumed, chain 1 of 2): as the sequence (P06756 31-1048 limits assumed, chain 1 of 2) above
T5 sequence (P18084 24-799 limits assumed, chain 2 of 2): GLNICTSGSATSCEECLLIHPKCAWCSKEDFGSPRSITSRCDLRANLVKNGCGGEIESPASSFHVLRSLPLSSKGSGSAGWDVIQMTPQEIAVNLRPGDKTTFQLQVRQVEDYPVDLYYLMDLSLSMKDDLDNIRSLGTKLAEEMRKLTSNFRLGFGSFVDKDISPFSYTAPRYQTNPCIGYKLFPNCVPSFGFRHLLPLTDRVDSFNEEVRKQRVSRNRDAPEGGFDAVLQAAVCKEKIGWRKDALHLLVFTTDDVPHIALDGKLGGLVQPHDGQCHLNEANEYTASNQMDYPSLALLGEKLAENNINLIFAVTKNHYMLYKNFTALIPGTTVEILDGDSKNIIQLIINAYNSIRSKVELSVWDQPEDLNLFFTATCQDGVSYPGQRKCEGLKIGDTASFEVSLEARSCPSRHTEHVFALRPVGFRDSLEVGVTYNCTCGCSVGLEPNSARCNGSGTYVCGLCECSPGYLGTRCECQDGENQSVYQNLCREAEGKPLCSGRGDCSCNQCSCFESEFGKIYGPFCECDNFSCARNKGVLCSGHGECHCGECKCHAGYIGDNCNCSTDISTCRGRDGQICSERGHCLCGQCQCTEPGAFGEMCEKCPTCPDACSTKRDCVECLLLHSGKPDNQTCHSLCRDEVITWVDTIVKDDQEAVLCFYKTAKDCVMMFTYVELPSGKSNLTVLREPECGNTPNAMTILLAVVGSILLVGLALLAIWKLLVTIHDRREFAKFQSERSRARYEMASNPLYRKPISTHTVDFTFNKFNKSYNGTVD
T4 sequence (P06756 31-1048 limits assumed, chain 1 of 2): as the sequence (P06756 31-1048 limits assumed, chain 1 of 2) above
T4 sequence (P05106 27-788 limits assumed, chain 2 of 2): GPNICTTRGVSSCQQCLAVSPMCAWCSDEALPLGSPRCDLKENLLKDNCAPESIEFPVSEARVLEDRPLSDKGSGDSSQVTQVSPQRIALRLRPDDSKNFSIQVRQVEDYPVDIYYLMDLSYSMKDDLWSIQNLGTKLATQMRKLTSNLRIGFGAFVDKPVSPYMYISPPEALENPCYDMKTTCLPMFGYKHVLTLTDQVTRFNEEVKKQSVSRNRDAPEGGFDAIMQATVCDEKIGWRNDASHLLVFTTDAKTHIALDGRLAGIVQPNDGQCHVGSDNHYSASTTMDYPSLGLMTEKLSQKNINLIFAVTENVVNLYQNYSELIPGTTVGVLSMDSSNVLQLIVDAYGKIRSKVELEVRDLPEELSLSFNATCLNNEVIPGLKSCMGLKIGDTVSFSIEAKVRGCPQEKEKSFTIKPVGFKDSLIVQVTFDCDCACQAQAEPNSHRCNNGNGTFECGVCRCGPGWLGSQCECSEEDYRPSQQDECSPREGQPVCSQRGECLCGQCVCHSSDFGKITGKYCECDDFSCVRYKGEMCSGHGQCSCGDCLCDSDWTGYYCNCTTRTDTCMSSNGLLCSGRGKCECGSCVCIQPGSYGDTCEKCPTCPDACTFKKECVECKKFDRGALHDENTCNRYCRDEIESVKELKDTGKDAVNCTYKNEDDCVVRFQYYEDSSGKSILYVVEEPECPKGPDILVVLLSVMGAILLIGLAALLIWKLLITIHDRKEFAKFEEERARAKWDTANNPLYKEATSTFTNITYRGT
T1 sequence (P06756 31-1048 limits assumed, chain 1 of 2): as the sequence (P06756 31-1048 limits assumed, chain 1 of 2) above
T1 sequence (P05556 21-798 limits assumed, chain 2 of 2): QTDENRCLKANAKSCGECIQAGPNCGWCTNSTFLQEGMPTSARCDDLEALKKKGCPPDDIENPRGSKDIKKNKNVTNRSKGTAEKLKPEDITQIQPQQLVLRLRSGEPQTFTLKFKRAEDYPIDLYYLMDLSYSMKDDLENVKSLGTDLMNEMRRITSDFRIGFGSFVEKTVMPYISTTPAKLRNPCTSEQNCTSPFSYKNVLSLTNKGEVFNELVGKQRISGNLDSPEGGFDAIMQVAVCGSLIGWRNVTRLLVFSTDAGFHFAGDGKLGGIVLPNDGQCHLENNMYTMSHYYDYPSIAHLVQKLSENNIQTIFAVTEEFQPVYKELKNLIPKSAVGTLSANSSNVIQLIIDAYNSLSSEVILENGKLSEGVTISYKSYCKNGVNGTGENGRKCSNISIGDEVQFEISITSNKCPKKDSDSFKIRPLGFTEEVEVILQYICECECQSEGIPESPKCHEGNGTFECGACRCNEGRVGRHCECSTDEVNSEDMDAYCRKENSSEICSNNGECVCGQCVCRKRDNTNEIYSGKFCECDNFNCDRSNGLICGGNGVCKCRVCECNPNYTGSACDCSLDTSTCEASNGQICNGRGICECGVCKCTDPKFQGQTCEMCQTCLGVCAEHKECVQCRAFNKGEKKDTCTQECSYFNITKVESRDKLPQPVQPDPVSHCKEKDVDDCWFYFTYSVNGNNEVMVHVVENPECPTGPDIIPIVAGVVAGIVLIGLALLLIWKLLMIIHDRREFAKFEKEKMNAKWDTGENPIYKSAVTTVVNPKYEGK
T2 sequence (P06756 31-1048 limits assumed, chain 1 of 2): as the sequence (P06756 31-1048 limits assumed, chain 1 of 2) above
T2 sequence (P18564 22-788 limits assumed, chain 2 of 2): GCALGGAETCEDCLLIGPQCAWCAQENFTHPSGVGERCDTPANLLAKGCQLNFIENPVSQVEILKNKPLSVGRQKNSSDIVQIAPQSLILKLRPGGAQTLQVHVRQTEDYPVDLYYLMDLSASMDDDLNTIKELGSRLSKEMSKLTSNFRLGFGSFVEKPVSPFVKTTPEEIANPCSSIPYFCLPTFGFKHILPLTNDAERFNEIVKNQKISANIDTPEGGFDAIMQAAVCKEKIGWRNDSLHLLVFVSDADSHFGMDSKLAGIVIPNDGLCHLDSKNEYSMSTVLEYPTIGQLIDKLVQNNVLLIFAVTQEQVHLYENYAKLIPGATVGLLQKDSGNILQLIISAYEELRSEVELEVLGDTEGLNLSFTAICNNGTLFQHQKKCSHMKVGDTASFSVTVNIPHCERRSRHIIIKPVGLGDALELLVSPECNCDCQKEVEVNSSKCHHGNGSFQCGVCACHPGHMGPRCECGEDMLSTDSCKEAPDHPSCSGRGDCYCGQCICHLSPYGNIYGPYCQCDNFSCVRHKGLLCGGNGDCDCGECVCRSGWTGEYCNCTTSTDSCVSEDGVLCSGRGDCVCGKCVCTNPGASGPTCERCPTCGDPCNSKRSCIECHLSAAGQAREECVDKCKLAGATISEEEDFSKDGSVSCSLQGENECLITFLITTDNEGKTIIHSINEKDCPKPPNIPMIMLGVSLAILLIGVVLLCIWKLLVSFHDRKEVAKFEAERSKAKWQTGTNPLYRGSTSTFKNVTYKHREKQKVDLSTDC

B1: IgG 11867 (antibody, V domains shown)
VH: EVQLVESGGGLVQPGGSLRLSCAASGFDFDSYAIHWVRQAPGKGLEWVAYFYPGHDYSTYADSVKGRFTISADTSKNTAYLQMNSLRAEDTAVYYCARPSPYFSWHQAMDYWGQGTLVTVSS
VL: DIQMTQSPSSLSASVGDRVTITCRASQSVSSAVAWYQQKPGKAPKLLIYSASSLYSGVPSRFSGSRSGTDFTLTISSLQPEDFATYYCQQATGSEVTFGQGTKVEIKR
notes: also called 11867 hG1
The EC50 is the concentration needed to bring the measured effect to its halfway point. A higher EC50 goes with weaker potency. B1: the “IC50, inhibition of integrin-αvβ1 CHO cell adhesion to LAP-TGFβ (curves in FIG. 12L)” value in [1] came to 2.9 nM. Moreover, the EC50 came out at 1.7 nM in assay [2]; 8.9 nM in assay [3]; 6.8 nM in assay [9]; 1.2 nM in assay [10]; 2.6 nM in assay [11]; 2.6 nM in assay [12]. In addition, the “IC50, inhibition of CHO cell adhesion to LAP-TGFβ” value is 2.4 nM in [4]; 4.1 nM in assay [5]; 1.6 nM in [6]; 2.1 nM in assay [7]; 1.3 nM in assay [8].

B2: 10404/10392 (bispecific antibody, human IgG1, kappa)
heavy chain 10392, knob: EVQLVESGGGLVQPGGSLRLSCAASGFNIYYSSIHWVRQAPGKGLEWVASISSSSGSTSYADSVKGRFTISADTSKNTAYLQMNSLRAEDTAVYYCARSYYGGGYPYALDYWGQGTLVTVSSASTKGPSVFPLAPSSKSTSGGTAALGCLVKDYFPEPVTVSWNSGALTSGVHTFPAVLQSSGLYSLSSVVTVPSSSLGTQTYICNVNHKPSNTKVDKKVEPKSCDKTHTCPPCPAPELLGGPSVFLFPPKPKDTLMISRTPEVTCVVVDVSHEDPEVKFNWYVDGVEVHNAKTKPREEQYNSTYRVVSVLTVLHQDWLNGKEYKCKVSNKALPAPIEKTISKAKGQPREPMVFDLPPSREEMTKNQVSLWCMVKGFYPSDIAVEWESNGQPENNYKTTPPVLDSDGSFFLYSKLTVDKSRWQQGNVFSCSVMHEALHNHYTQKSLSLSPGK
heavy chain 10404, hole: EVQLVESGGGLVQPGGSLRLSCAASGFNLYSSSIHWVRQAPGKGLEWVAYIYPSYGYTSTYADSVKGRFTISADTSKNTAYLQMNSLRAEDTAVYYCARPAPYYSWYPAMDYWGQGTLVTVSSASTKGPSVFPLAPSSKSTSGGTAALGCLVKDYFPEPVTVSWNSGALTSGVHTFPAVLQSSGLYSLSSVVTVPSSSLGTQTYICNVNHKPSNTKVDKKVEPKSCDKTHTCPPCPAPELLGGPSVFLFPPKPKDTLMISRTPEVTCVVVDVSHEDPEVKFNWYVDGVEVHNAKTKPREEQYNSTYRVVSVLTVLHQDWLNGKEYKCKVSNKALPAPIEKTISKAKGQPREPQVYTLPPIRELMTSNQVSLSCAVKGFYPSDIAVEWESNGQPENNYKTTPPVLDSDGSFFLVSKLTVDKSRWQQGNVFSCSVMHEALHNHYTQKSLSLSPGK
light chain 10404: DIQMTQSPSSLSASVGDRVTITCRASQSVSSAVAWYQQKPGKAPKLLIYSASSLYSGVPSRFSGSRSGTDFTLTISSLQPEDFATYYCQQASGSPFTFGQGTKVEIKRTVAAPSVFIFPPSDEQLKSGTASVVCLLNNFYPREAKVQWKVDNALQSGNSQESVTEQDSKDSTYSLSSTLTLSKADYEKHKVYACEVTHQGLSSPVTKSFNRGEC
In [13], B2 registered an EC50 of 2.39 nM. Moreover, the “IC50, inhibition of integrin-αvβ1 CHO cell adhesion to LAP-TGFβ; no antibody named on the panel, binder taken from the context of FIG. 10” value in assay [14] was found to be 2.91 nM. Moreover, the “IC50, inhibition of CHO cell adhesion to LAP-TGFβ” value in assay [15] worked out at 24.2 nM; in assay [16] it was 18.2 nM; in assay [17], 9.83 nM; in assay [18], 55.1 nM. In assay [19], the “adhesion of integrin-αvβ1 CHO cells to LAP-TGFβ, normalised confluence, number over the bar, untreated = 100” value came out at 16.7%.
